From patent US10919943B2, “Mutant proteins enabling agrochemical control of plant gene expression” (The Regents of the University of California, priority 2016, dated 2021)
Changes are numbered by the printed parent chain. In names and notes the source's numbering stands.

T1: PYR1 (Arabidopsis thaliana, UniProt O49686)
T1 construct: expressed in transfected cells; host or cells: S. cerevisiae strain Y190
T1 sequence (O49686 1-191): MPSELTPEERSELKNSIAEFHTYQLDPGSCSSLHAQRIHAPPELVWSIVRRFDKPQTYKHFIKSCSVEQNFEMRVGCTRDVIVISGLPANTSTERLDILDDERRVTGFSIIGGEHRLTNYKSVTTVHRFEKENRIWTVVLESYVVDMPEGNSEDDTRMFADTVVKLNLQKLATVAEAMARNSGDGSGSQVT

B1: V393Q: HAB1 mutant (protein, listed as Arabidopsis thaliana)
chain: MEEMTPAVAMTLSLAANTMCESSPVEITQLKNVTDAADLLSDSENQSFCNGGTECTMEDVSELEEVGEQDLLKTLSDTRSGSSNVFDEDDVLSVVEDNSAVISEGLLVVDAGSELSLSNTAMEIDNGRVLATAIIVGESSIEQVPTAEVLIAGVNQDTNTSEVVIRLPDENSNHLVKGRSVYELDCIPLWGTVSIQGNRSEMEDAFAVSPHFLKLPIKMLMGDHEGMSPSLTHLTGHFFGVYDGHGGHKVADYCRDRLHFALAEEIERIKDELCKRNTGEGRQVQWDKVFTSCFLTVDGEIEGKIGRAVVGSSDKVLEAVASETVGSTAVVALVCSSHIVVSNCGDSRAVLFRGKEAMPLSVDHKPDREDEYARIENAGGKVIQWQGARVFGQLAMSRSIGDRYLKPYVIPEPEVTFMPRSREDECLILASDGLWDVMNNQEVCEIARRRILMWHKKNGAPPLAERGKGIDPACQAAADYLSMLALQKGSKDNISIIVIDLKAQRKFKTRT
B2: V393R: HAB1 mutant V393R, denoted HAB1^! (protein, listed as Arabidopsis thaliana)
chain: B1 chain with Q393R
B3: V393K: HAB1 mutant (protein, listed as Arabidopsis thaliana)
chain: B1 chain with Q393K
B4: R389G: HAB1 mutant (protein, UniProt Q9CAJ0 23-511, looked up, variant R389G)
Protein phosphatase 2C 16: SPVEITQLKNVTDAADLLSDSENQSFCNGGTECTMEDVSELEEVGEQDLLKTLSDTRSGSSNVFDEDDVLSVVEDNSAVISEGLLVVDAGSELSLSNTAMEIDNGRVLATAIIVGESSIEQVPTAEVLIAGVNQDTNTSEVVIRLPDENSNHLVKGRSVYELDCIPLWGTVSIQGNRSEMEDAFAVSPHFLKLPIKMLMGDHEGMSPSLTHLTGHFFGVYDGHGGHKVADYCRDRLHFALAEEIERIKDELCKRNTGEGRQVQWDKVFTSCFLTVDGEIEGKIGRAVVGSSDKVLEAVASETVGSTAVVALVCSSHIVVSNCGDSRAVLFRGKEAMPLSVDHKPDREDEYARIENAGGKVIQWQGAGVFGVLAMSRSIGDRYLKPYVIPEPEVTFMPRSREDECLILASDGLWDVMNNQEVCEIARRRILMWHKKNGAPPLAERGKGIDPACQAAADYLSMLALQKGSKDNISIIVIDLKAQRKFKTRT
B5: G392T: HAB1 mutant (protein, UniProt Q9CAJ0 23-511, looked up, variant G392T)
Protein phosphatase 2C 16: B4 Protein phosphatase 2C 16 with G367R, G370T
B6: G392V: HAB1 mutant (protein, UniProt Q9CAJ0 23-511, looked up, variant G392V)
Protein phosphatase 2C 16: B4 Protein phosphatase 2C 16 with G367R, G370V
B7: G392M: HAB1 mutant (protein, UniProt Q9CAJ0 23-511, looked up, variant G392M)
Protein phosphatase 2C 16: B4 Protein phosphatase 2C 16 with G367R, G370M
B8: G392A: HAB1 mutant (protein, UniProt Q9CAJ0 23-511, looked up, variant G392A)
Protein phosphatase 2C 16: B4 Protein phosphatase 2C 16 with G367R, G370A
B9: R389K: HAB1 mutant (protein, UniProt Q9CAJ0 23-511, looked up, variant R389K)
Protein phosphatase 2C 16: B4 Protein phosphatase 2C 16 with G367K
B10: G392E: HAB1 mutant (protein, UniProt Q9CAJ0 23-511, looked up, variant G392E)
Protein phosphatase 2C 16: B4 Protein phosphatase 2C 16 with G367R, G370E
B11: G392Q: HAB1 mutant (protein, UniProt Q9CAJ0 23-511, looked up, variant G392Q)
Protein phosphatase 2C 16: B4 Protein phosphatase 2C 16 with G367R, G370Q
B12: G392N: HAB1 mutant (protein, UniProt Q9CAJ0 23-511, looked up, variant G392N)
Protein phosphatase 2C 16: B4 Protein phosphatase 2C 16 with G367R, G370N
B13: G392K: HAB1 mutant (protein, UniProt Q9CAJ0 23-511, looked up, variant G392K)
Protein phosphatase 2C 16: B4 Protein phosphatase 2C 16 with G367R, G370K
B14: G392R: HAB1 mutant (protein, UniProt Q9CAJ0 23-511, looked up, variant G392R)
Protein phosphatase 2C 16: B4 Protein phosphatase 2C 16 with G367R, G370R
B15: R389I: HAB1 mutant (protein, UniProt Q9CAJ0 23-511, looked up, variant R389I)
Protein phosphatase 2C 16: B4 Protein phosphatase 2C 16 with G367I
B16: F391P: HAB1 mutant (protein, UniProt Q9CAJ0 23-511, looked up, variant F391P)
Protein phosphatase 2C 16: B4 Protein phosphatase 2C 16 with G367R, F369P
B17: G392L: HAB1 mutant (protein, UniProt Q9CAJ0 23-511, looked up, variant G392L)
Protein phosphatase 2C 16: B4 Protein phosphatase 2C 16 with G367R, G370L
B18: G392F: HAB1 mutant (protein, UniProt Q9CAJ0 23-511, looked up, variant G392F)
Protein phosphatase 2C 16: B4 Protein phosphatase 2C 16 with G367R, G370F
B19: G392C: HAB1 mutant (protein, UniProt Q9CAJ0 23-511, looked up, variant G392C)
Protein phosphatase 2C 16: B4 Protein phosphatase 2C 16 with G367R, G370C
B20: G392H: HAB1 mutant (protein, UniProt Q9CAJ0 23-511, looked up, variant G392H)
Protein phosphatase 2C 16: B4 Protein phosphatase 2C 16 with G367R, G370H
B21: G392Y: HAB1 mutant (protein, UniProt Q9CAJ0 23-511, looked up, variant G392Y)
Protein phosphatase 2C 16: B4 Protein phosphatase 2C 16 with G367R, G370Y
B22: F391E: HAB1 mutant (protein, UniProt Q9CAJ0 23-511, looked up, variant F391E)
Protein phosphatase 2C 16: B4 Protein phosphatase 2C 16 with G367R, F369E
B23: F391D: HAB1 mutant (protein, UniProt Q9CAJ0 23-511, looked up, variant F391D)
Protein phosphatase 2C 16: B4 Protein phosphatase 2C 16 with G367R, F369D
B24: R389H: HAB1 mutant (protein, UniProt Q9CAJ0 23-511, looked up, variant R389H)
Protein phosphatase 2C 16: B4 Protein phosphatase 2C 16 with G367H
B25: G392D: HAB1 mutant (protein, UniProt Q9CAJ0 23-511, looked up, variant G392D)
Protein phosphatase 2C 16: B4 Protein phosphatase 2C 16 with G367R, G370D
B26: Y404P: HAB1 mutant (protein, UniProt Q9CAJ0 23-511, looked up, variant Y404P)
Protein phosphatase 2C 16: B4 Protein phosphatase 2C 16 with G367R, Y382P
B27: G392I: HAB1 mutant (protein, UniProt Q9CAJ0 23-511, looked up, variant G392I)
Protein phosphatase 2C 16: B4 Protein phosphatase 2C 16 with G367R, G370I
B28: Y404N: HAB1 mutant (protein, UniProt Q9CAJ0 23-511, looked up, variant Y404N)
Protein phosphatase 2C 16: B4 Protein phosphatase 2C 16 with G367R, Y382N
B29: G392P: HAB1 mutant (protein, UniProt Q9CAJ0 23-511, looked up, variant G392P)
Protein phosphatase 2C 16: B4 Protein phosphatase 2C 16 with G367R, G370P
B30: G392W: HAB1 mutant (protein, UniProt Q9CAJ0 23-511, looked up, variant G392W)
Protein phosphatase 2C 16: B4 Protein phosphatase 2C 16 with G367R, G370W

Biological target: T1, PYR1
Test: Yeast two hybrid of pACT-HAB1 site saturation mutants with pBD-PYR1 on 10 μM ABA, β-galactosidase staining
Format: cell-based
Set-up: key: x: Mutations in HAB1 that disrupt HAB1 interaction with PYR1
Details: S. cerevisiae Y190, 10 μM ABA; dead = lack of detectable staining in comparison to wild type control
From the text: To systematically define mutations in HAB1 that disrupt its binding to PYR1, we used site saturation mutagenesis to create a collection all possible single amino acid substitutions in 20 residues lining the PYR1 binding interface, and then assayed the ability of each mutant to bind PYR1 using the yeast two hybrid assay described above. We targeted the following residues for mutagenesis: R199, 5200, E201, E203, H245, G246, G247, S322, E323, T324, K381, I383, Q384, W385, Q386, R389, F391, G392, V393, and Y404. To create the collection of mutations, mutagenic “NNK” site directed mutagenesis primers were synthesized for each of the 20 positions and the primers used in QuickChange site-directed mutagenesis reactions using a previously described pACT-HAB1 template (Park et al., 2009). We note that this clone uses a HAB1 cDNA lacking its three N-terminal amino acids. The reaction products were digested with DpnI, and transformed into competent Escherichia coli DH5α cells and plasmid DNA for 96 colonies per site was isolated using Bioneer AccuPrep® Plasmid Mini Extraction Kit (Alameda, Calif.) and sequenced to identify mutants. This process identified most of the 19 desired mutations per target site; the remaining mutations were constructed directly using specific mutagenic primers. To interrogate the effects of the mutations on PYR1-HAB1 interactions, the mutant clones were individually transformed into S. cerevisiae strain Y190 containing pBD-PYR1 (Park et al., 2009). Yeast transformants were selected for the presence of plasmids on selective SD (-Leu,-Trp) plates and then spotted onto SD (-Leu,-Trp) agar plates supplemented with 10 μM ABA. After incubating the test plates at 30° C. for two days, the colonies were lysed with chloroform and stained to reveal […] expression levels. “Dead” mutants were defined by lack of detectable staining in comparison to a wild type pBD-PYR1/pACT-HAB1 control. This screening effort defined 163 mutations that disrupt the ABA-induced PYR1/HAB1 interaction (Table 2).

Molecule	Mutations in HAB1 that disrupt HAB1 interaction with PYR1
B1	x
B2	x
B3	x
B4	x
B5	x
B6	x
B7	x
B8	x
B9	x
B10	x
B11	x
B12	x
B13	x
B14	x
B15	x
B16	x
B17	x
B18	x
B19	x
B20	x
B21	x
B22	x
B23	x
B24	x
B25	x
B26	x
B27	x
B28	x
B29	x
B30	x
